What follows are substances tested against CD3 (human) (UniProt P07766) (assay: cell-based or functional assay).
UniProt P07766, sequence (P07766 23-207): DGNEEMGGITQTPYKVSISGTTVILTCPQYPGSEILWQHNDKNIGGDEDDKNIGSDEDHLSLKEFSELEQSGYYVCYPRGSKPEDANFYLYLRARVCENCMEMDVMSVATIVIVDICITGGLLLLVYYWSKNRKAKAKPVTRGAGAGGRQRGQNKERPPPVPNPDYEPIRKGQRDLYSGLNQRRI

**Q.** Which Transduction efficiencies as measured by CD3+GFP+ cells at Day 6 does the source give for soluble anti-CD3 antibody clone HIT3A here?
**A.** The Transduction efficiencies as measured by CD3+GFP+ cells at Day 6 was 4.31%.

**Q.** With soluble anti-CD3 antibody clone OKT3 as the substance, how does the Transduction efficiencies as measured by CD3+GFP+ cells at Day 6 read?
**A.** The Transduction efficiencies as measured by CD3+GFP+ cells at Day 6 was 3.27%.

**Q.** How did the Transduction efficiencies as measured by CD3+GFP+ cells at Day 6 turn out when soluble anti-CD3 antibody clone UCHT1 was run?
**A.** Its Transduction efficiencies as measured by CD3+GFP+ cells at Day 6 is 0.52%.

From patent EP4752227A2
